The source of these data is patent JP2014185312A (dated 2014).

No end group written: not given here.

This experiment deals with T1, Recombinant Human ErbB2/Fc Chimera (R&D Systems) (human, UniProt P04626 23-652).
T1 construct: Bought reagent, immobilised by amine coupling on a GLM sensor chip (about 3000 RU); also called HER2; not shown: Fc part (and any linker or tag) of the bought chimera; not described
Nature of the experiment: SPR (ProteOn XPR36), ErbB2/Fc immobilised on GLM chip, conjugate as analyte, 1:1 Langmuir fit.

B1: pe-PEG40 (HER2-binding peptide of SEQ ID NO 3 modified with ICG and bound to monomaleimide linear PEG ME-400MA, MW 40000) (peptide)
peptide: MARSGLGGKGSC
modifications: not fully specified (residue 12); also: labelled with ICG-Sulfo-OSu, position not given here
notes: Tested as the PEG/ICG conjugate; also called pe−PEG40
As to B1, the binding result is given as “binds”.

B2: pe-PEG20 (HER2-binding peptide of SEQ ID NO 3 modified with ICG and bound to monomaleimide linear PEG ME-200MA, MW 20000) (peptide)
peptide: MARSGLGGKGSC
modifications: not fully specified (residue 12); also: labelled with ICG-Sulfo-OSu, position not given here
notes: Tested as the PEG/ICG conjugate; also called pe−PEG20
As for B2, the binding result was “binds”.
